The record followed here is the Immune Epitope Database (IEDB).

The target of one test is HLA-B*40:01. As to the kind of experiment: IEDB peptide-MHC binding, purified MHC/direct/fluorescence; filed as Kd, often an IC50 or EC50 that approximates it; ≥ and ≤ were set here for values at or beyond the usual limits of such assays. As to conditions: source organism: Mycobacterium tuberculosis.
The target in a further test is HLA-C*14:02. The description is as above.
Test [1] addresses HLA-A*02:01. As to the kind of experiment: IEDB peptide-MHC binding, purified MHC/competitive/radioactivity; ≥ and ≤ were set here for values at or beyond the usual limits of such assays.
Test [2] has as its target HLA-A*11:01. Put plainly: IEDB peptide-MHC binding, purified MHC/competitive/fluorescence; filed as Kd, often an IC50 or EC50 that approximates it; ≥ and ≤ were set here for values at or beyond the usual limits of such assays. As to conditions: source organism: Influenza A virus (A/goose/Hong Kong/739.2/2002(H5N1)).
A further test deals with HLA-A*26:01. As to the kind of experiment: IEDB peptide-MHC binding, purified MHC/direct/fluorescence; filed as Kd, often an IC50 or EC50 that approximates it; ≥ and ≤ were set here for values at or beyond the usual limits of such assays. As to conditions: source organism: Mammarenavirus juninense.
The target of the next test is HLA-C*12:03. The description is as above. The following applies: source organism: Mammarenavirus machupoense.
For test [3], the target named is HLA-B*35:01. Put plainly: IEDB peptide-MHC binding, purified MHC/competitive/fluorescence; filed as Kd, often an IC50 or EC50 that approximates it; ≥ and ≤ were set here for values at or beyond the usual limits of such assays. The following applies: source organism: Mammarenavirus machupoense.
In another test the target is HLA-C*05:01. As to the kind of experiment: IEDB peptide-MHC binding, purified MHC/direct/fluorescence; filed as Kd, often an IC50 or EC50 that approximates it; ≥ and ≤ were set here for values at or beyond the usual limits of such assays. As to conditions: source organism: Salmonella enterica subsp. enterica serovar Typhi str. CT18.
In test [4] the target is HLA-B*07:02. As to the kind of experiment: IEDB peptide-MHC binding, purified MHC/competitive/fluorescence; filed as Kd, often an IC50 or EC50 that approximates it; ≥ and ≤ were set here for values at or beyond the usual limits of such assays. The following applies: source organism: Salmonella enterica subsp. enterica serovar Typhi.
Test [5] concerns the target HLA-B*51:01. The test is described as above. As to conditions: source organism: Salmonella enterica subsp. enterica serovar Typhi.
Test [6] deals with HLA-B*51:01. As to the kind of experiment: IEDB peptide-MHC binding, purified MHC/direct/fluorescence; filed as Kd, often an IC50 or EC50 that approximates it; ≥ and ≤ were set here for values at or beyond the usual limits of such assays.
For the next test, the target named is HLA-A*24:02. The test is described as above.
The target in the next test is HLA-C*06:02. The test is described as above.
Test [7] has as its target HLA-A*02:01. Put plainly: IEDB peptide-MHC binding, purified MHC/competitive/fluorescence; filed as Kd, often an IC50 or EC50 that approximates it; ≥ and ≤ were set here for values at or beyond the usual limits of such assays. As to conditions: source organism: Vaccinia virus GLV-1h68.
For the next test, the target named is HLA-A*03:01. As to the kind of experiment: IEDB peptide-MHC binding, purified MHC/competitive/radioactivity; filed as Kd, often an IC50 or EC50 that approximates it; ≥ and ≤ were set here for values at or beyond the usual limits of such assays. As to conditions: source organism: Vaccinia virus WR.
Test [8] addresses HLA-A*11:01. Described as above. The following applies: source organism: Vaccinia virus WR.
The target in test [9] is HLA-A*31:01. The test is described as above. As to conditions: source organism: Vaccinia virus WR.
The next test concerns the target HLA-A*33:01. The test is described as above. As to conditions: source organism: Vaccinia virus WR.
Another test addresses HLA-A*68:01. The test is described as above. The following applies: source organism: Vaccinia virus WR.
Test [10] deals with HLA-B*07:02. The test is described as above. As to conditions: source organism: Vaccinia virus WR.
Test [11] addresses HLA-B*35:01. The description is as above. As to conditions: source organism: Vaccinia virus WR.
Test [12] concerns the target HLA-B*51:01. The description is as above. The following applies: source organism: Vaccinia virus WR.
The next test concerns the target HLA-B*53:01. The test is described as above. As to conditions: source organism: Vaccinia virus WR.
For another test, the target named is HLA-B*54:01. The test is described as above. As to conditions: source organism: Vaccinia virus WR.
The target in the next test is HLA-B*39:01. As to the kind of experiment: IEDB peptide-MHC binding, purified MHC/competitive/fluorescence; filed as Kd, often an IC50 or EC50 that approximates it; ≥ and ≤ were set here for values at or beyond the usual limits of such assays. The following applies: source organism: Bacillus anthracis str. A0488.
The target in test [13] is HLA-B*07:02. As to the kind of experiment: IEDB peptide-MHC binding, purified MHC/direct/fluorescence; filed as Kd, often an IC50 or EC50 that approximates it; ≥ and ≤ were set here for values at or beyond the usual limits of such assays.
Another test addresses HLA-B*15:01. Described as above.
In another test the target is HLA-A*02:12. As to the kind of experiment: IEDB peptide-MHC binding, purified MHC/competitive/fluorescence; filed as Kd, often an IC50 or EC50 that approximates it; ≥ and ≤ were set here for values at or beyond the usual limits of such assays. The following applies: source organism: Entamoeba histolytica HM-1:IMSS.
Test [14] has as its target HLA-A*31:01. As to the kind of experiment: IEDB peptide-MHC binding, purified MHC/direct/fluorescence; filed as Kd, often an IC50 or EC50 that approximates it; ≥ and ≤ were set here for values at or beyond the usual limits of such assays. As to conditions: source organism: Homo sapiens.
The target of the next test is HLA-B*27:05. The test is described as above. The following applies: source organism: Homo sapiens.
The next test addresses HLA-A*01:01. As to the kind of experiment: IEDB peptide-MHC binding, purified MHC/competitive/fluorescence; filed as Kd, often an IC50 or EC50 that approximates it; ≥ and ≤ were set here for values at or beyond the usual limits of such assays. The following applies: source organism: Homo sapiens.
The next test concerns the target HLA-A*29:02. The test is described as above. As to conditions: source organism: Homo sapiens.
The target in the next test is HLA-A*24:03. As to the kind of experiment: IEDB peptide-MHC binding, purified MHC/direct/fluorescence; filed as Kd, often an IC50 or EC50 that approximates it; ≥ and ≤ were set here for values at or beyond the usual limits of such assays. The following applies: source organism: Pseudomonas sp. KIE171.
Test [15] has as its target HLA-B*35:01. The description is as above. As to conditions: source organism: Pseudomonas sp. KIE171.
For test [16], the target named is HLA-A*02:01. The test is described as above. As to conditions: source organism: Camelpox virus M-96.
Another test has as its target HLA-A*69:01. The test is described as above. The following applies: source organism: Camelpox virus M-96.
[17] abbreviates: source organism: Mycobacterium tuberculosis H37Ra.
The mark [18] stands for this setting: source organism: Burkholderia mallei.
Where [19] appears, read: source organism: Yersinia pestis CA88-4125.
Where [20] appears, read: source organism: Yersinia pestis.

Bounds are passed on as bounds.

As usually defined, the Kd is the concentration at which binding is half-saturated. On to AEAASATPL, for which the Kd was 21.9 nM with HLA-B*40:01 and at least 20000 nM with HLA-C*14:02 (setting [17]).
For orientation: IC50 means the point on the concentration scale where inhibition reaches its midpoint. Take ALDGGNKHFL: in the test with HLA-A*02:01 [1] (source organism: Homo sapiens), the IC50 turned out to be 41.7 nM.
Turning to ASYKIFRIEK, in the test with HLA-A*11:01 [2], the Kd was determined as 0.9 nM.
Turning to DAMPGVLSY, the Kd is 2.1 nM with HLA-A*26:01, at least 20000 nM with HLA-C*12:03 and 0.5 nM with HLA-B*35:01 [3].
Take FPPGTSLTI: the Kd was at least 20000 nM with HLA-C*05:01, 187 nM with HLA-B*07:02 [4] and 564 nM with HLA-B*51:01 [5].
With GLIDIAPHQI, the IC50 with HLA-A*02:01 [1] (setting [17]) came out at 49 nM.
GLLGSPVRA: the IC50 with HLA-A*02:01 [1] (source organism: Homo sapiens) was 219 nM.
As for GPAEARKVC, in the test with HLA-B*51:01 [6] (source organism: Yellow fever virus), the Kd is at least 20000 nM.
As to IYPEWYFLW, the Kd in the test with HLA-A*24:02 (source organism: Campylobacter jejuni subsp. jejuni 81116) is at most 1 nM.
For the sequence KFITHPFLW, the Kd with HLA-A*24:02 (source organism: Entamoeba histolytica HM-1:IMSS) is at most 1 nM.
With LMYDIINSV, the Kd was 4440 nM with HLA-C*06:02 (source organism: Vaccinia virus GLV-1h68); 0.6 nM in the test with HLA-A*02:01 [7]; at least 35100 nM with HLA-A*03:01; 1300 nM with HLA-A*11:01 [8]; 4520 nM with HLA-A*31:01 [9]; at least 20300 nM with HLA-A*33:01. The Kd was at least 77700 nM in the test with HLA-A*68:01; at least 77500 nM with HLA-B*07:02 [10]; at least 77400 nM with HLA-B*35:01 [11]; at least 54500 nM with HLA-B*51:01 [12]; at least 78200 nM in the test with HLA-B*53:01; 258 nM in the test with HLA-B*54:01.
In the case of LNTSAGFPYV, the IC50 in the test with HLA-A*02:01 [1] (source organism: Rhinovirus C) came to 500 nM.
With LRHSTAHLL, the Kd in the test with HLA-C*06:02 (source organism: Bacillus anthracis str. A0488) is 13 nM; in the test with HLA-B*39:01, 71.3 nM.
NPVDGSIWY: the Kd in the test with HLA-B*07:02 [13] (setting [18]), in the test with HLA-B*15:01 (source organism: Burkholderia mallei ATCC 23344) and in the test with HLA-B*51:01 [6] (setting [18]) was at least 20000 nM in each case.
The sequence NQNDNEETV registered a Kd with HLA-A*02:12 of 40.4 nM.
Consider RYFSVTRPL, for which the Kd in the test with HLA-A*31:01 [14] is 512 nM; with HLA-B*07:02 [13] (source organism: Homo sapiens), at least 27600 nM; with HLA-B*27:05, 10600 nM; in the test with HLA-C*14:02 (source organism: Anopheles gambiae str. PEST), at most 1 nM.
For the sequence SVDGFRASY, the Kd was 7.1 nM with HLA-A*01:01 and 1.3 nM with HLA-A*29:02.
The sequence TFAWASFLW showed a Kd in the test with HLA-A*24:02 (setting [19]) of 3 nM.
As to TPFEVETRL, the Kd was 836 nM in the test with HLA-B*07:02 [13] (setting [20]), at least 20000 nM with HLA-B*15:01 (setting [19]) and at least 20000 nM with HLA-B*51:01 [6] (setting [20]).
Consider VLSEWLPVT, for which the concentration for half-maximal inhibition (IC50) with HLA-A*02:01 [1] (source organism: Rift Valley fever virus) came out at 15 nM.
In the case of VPWQEKTAS, the results for the Kd in the test with HLA-A*24:03, with HLA-B*07:02 [13] (source organism: Pseudomonas sp. KIE171) and with HLA-B*35:01 [15] were 10500 nM, 5810 nM and 3.28 nM, respectively.
In the case of YLMPYSVYI, the Kd was at most 1 nM with HLA-A*02:01 [16], at most 1 nM with HLA-A*69:01 and 7 nM with HLA-C*06:02 (source organism: Variola virus).
